Results as given in patent US20040023332A1 (GENEXINE, published 2004).
Positions count from the first letter of the chain named. In names and notes the source's numbering stands.

B1: human IL-12p40 mutant hp40-N222L (ligand)
chain: IWELKKDVYVVELDWYPDAPGEMVVLTCDTPEEDGITWTLDQSSEVLGSGKTLTIQVKEFGDAGQYTCHKGGEVLSHSLLLLHKKEDGIWSTDILKDQKEPKNKTFLRCEAKNYSGRFTCWWLTTISTDLTFSVKSSRGSSDPQGVTCGAATLSAERVRGDNKEYEYSVECQEDSACPAAEESLPIEVMVDAVHKLKYELYTSSFFIRDIIKPDPPKNLQLKPLKNSRQVEVSWEYPDTWSTPHSYFSLTFCVQVQGKSKREKKDRVFTDKTSATVICRKNASISVRAQDRYYSSSWSEWASVPCS
notes: NO; 3 already carries N222L; also called Leu-222
B2: human IL-12p35 subunit, wild type (ligand, UniProt P29459 23-219, looked up)
chain: RNLPVATPDPGMFPCLHHSQNLLRAVSNMLQKARQTLEFYPCTSEEIDHEDITKDKTSTVEACLPLELTKNESCLNSRETSFITNGSCLASRKTSFMMALCLSSIYEDLKMYQVEFKTMNAKLLMDPKRQIFLDQNMLAVIDELMQALNFNSETVPQKSSLEEPDFYKTKIKLCILLHAFRIRAVTIDRVMSYLNAS
notes: also called hp35
B3: human IL-12p40 mutant hp40-N222Q (ligand)
chain: B1 chain with L200Q
notes: NO; 4 already carries N222Q; also called Gln-222

Key:
[1] = molecular target: human IL-12p40 subunit, wild type (human) (UniProt P29460); test: IL-12p70 ELISA of lysates of co-transfected COS-7 cells
[2] = molecular target: B2; test: as above
Procedure: 1.5 μg/Ml of tunicamycin was added in some experiments. After incubation for another 24 hours, supernatants and cell pellets were harvested by centrifugation. Supernatants were used for the SEAP assay and cell pellets were resuspended in 200 μl of lysis solution (Promega). The levels of IL-12p70 and IL-12p40 in both supernatants and cell lysates were measured by ELISA (R&D system). For immunoblotting, 10% or 12% sodium dodecyl-sulfate-polyacrylamide electrophoresis (SDS-PAGE) was conducted with supernatants and cell lysates. The proteins separated from the above experiment was electrotransfered to nylon membrane (Amersham). The proteins absorbed to the membrane were obtained by using biotin-labeled human IL-12 antibody (Amersham), horseradish peroxidase (HRP)-labeled streptavidin (PharMingen) and ECL kit (Amersham). The levels of IL-12p70 or IL-12p40 expression were measured by ELISA and presented relatively to the level of wild type, which is arbitrarily set at 100%.
^aTotal 20 μg of each DNA contruct was used for transfection into COS-7 cells by electroporation. For simultaneous transfection of two DNA constructs, 10 μg of each DNA construct was used. ^bThe levels of human and mouse IL-12p70 or IL-12p40 expression were measured by ELISA and presented relative to the wild-type, which is arbitrarily set at 100%. ^cThe equal amount of p70 in each mutant supernatant was used in the IFN-γ induction assay. The levels of induced IFN-γ were measured by ELISA and presented relative to the level of wild type, which is arbitrarily set at 100%. ^dIL-12p40 indicates the monomeric and homodimeric p40 form of IL-12p40, but not the p40 part of IL-12p70. ^eIL-12p70 indicates the heterodimer which consists of IL-12p35 and IL-12p40. ^fThe plasmid backbone used for independent expression of hIL-12p40, hIL-12p35, and their derivatives is pCIN-neo and is descibed as mock. ^g<1 indicates values below the detectable range of ELISA assay. ^hWhen the equal amount of p70 in each indicated mutant (hp40-N135Q) and wild-type supernatant is used in IFN-γ induction assay, the insufficient hp40 in each mutant supernatant compared to wild-type supernatantwas reconstituted with hp40 supernatant obtained after tranfection with hp40 only ⁱNumbers in ( ) mean each amount (μg) of cotransfected plasmid, pCIN-hp40-N222Q and pCIN-hp35.

[3] = molecular target: B3; test: co-transfection of hp40-N222Q plasmid with varied amounts of hp35 DNA, IL-12p70 ELISA

Row | Molecule | IL-12p70 heterodimer in cell lysates (% of wild type) [1] [%] | IL-12p70 heterodimer in cell lysates (% of wild type) [2] [%] | binding result [3]
1 | human IL-12p35 double mutant hp35-N127,141Q (from UniProt P29459 23-219) (ligand) | 71 |  | 
2 | human IL-12p35 mutant hp35-N127Q (from UniProt P29459 23-219) (ligand) | 72 |  | 
3 | human IL-12p35 mutant hp35-N141Q (from UniProt P29459 23-219) (ligand) | 90 |  | 
4 | human IL-12p35 mutant hp35-N251Q (from UniProt P29459 23-219) (ligand) | 88 |  | 
5 | human IL-12p40 mutant hp40-N125Q (from UniProt P29460 23-328) (ligand) |  | 97 | 
6 | human IL-12p40 mutant hp40-N135Q (from UniProt P29460 23-328) (ligand) |  | 99 | 
7 | B1 |  | 89 | 
8 | B2 | 100 |  | binds
9 | B3 |  | 90 | 
